Test results from patent US11325966.

Legend:
Experiment in all cases: cell-based or functional assay
[1] = target: HIV-1 Env of pseudovirus CNE17 (HIV-1)
[2] = target: HIV-1 Env of pseudovirus CNE52 (HIV-1)
[3] = target: HIV-1 Env of pseudovirus Du172.17 (HIV-1)
[4] = target: HIV-1 Env of pseudovirus 1056_10_TA11_1826 (HIV-1)
[5] = target: HIV-1 Env of pseudovirus P0402_c2_11 (HIV-1)
[6] = target: HIV-1 Env of pseudovirus 6952.v1.c20 (HIV-1)
[7] = target: HIV-1 Env of pseudovirus 620345.c01 (HIV-1)
[8] = target: HIV-1 Env of pseudovirus 191084 B7-19 (HIV-1)
[9] = target: HIV-1 Env of pseudovirus 6041.v3.c23 (HIV-1)
[10] = target: HIV-1 Env of pseudovirus PVO.4 (HIV-1)
[11] = target: HIV-1 Env of pseudovirus HIV-16845-2.22 (HIV-1)
[12] = target: HIV-1 Env of pseudovirus Q769.d22 (HIV-1)
[13] = target: HIV-1 Env of pseudovirus CNE19 (HIV-1)
[14] = target: HIV-1 Env of pseudovirus 0815.v3.c3 (HIV-1)
[15] = target: HIV-1 Env of pseudovirus BJOX009000.02.4 (HIV-1)
[16] = target: HIV-1 Env of pseudovirus 249M B10 (HIV-1)
[17] = target: HIV-1 Env of pseudovirus 3365.v2.c2 (HIV-1)
[18] = target: HIV-1 Env of pseudovirus ZM214M.PL15 (HIV-1)
[19] = target: HIV-1 Env of pseudovirus T255-34 (HIV-1)
[20] = target: HIV-1 Env of pseudovirus 6240_08_TA5_4622 (HIV-1)
[21] = target: HIV-1 Env of pseudovirus Ce703010054_2A2 (HIV-1)
[22] = target: HIV-1 Env of pseudovirus Du422.1 (HIV-1)
[23] = target: HIV-1 Env of pseudovirus Q259.d2.17 (HIV-1)
[24] = target: HIV-1 Env of pseudovirus 9004SS_A3_4 (HIV-1)
[25] = target: HIV-1 Env of pseudovirus T257-31 (HIV-1)
[26] = target: HIV-1 Env of pseudovirus Ce0682_E4 (HIV-1)
[27] = target: HIV-1 Env of pseudovirus HIV-001428-2.42 (HIV-1)
[28] = target: HIV-1 Env of pseudovirus CNE21 (HIV-1)
[29] = target: HIV-1 Env of pseudovirus 263-8 (HIV-1)
[30] = target: HIV-1 Env of pseudovirus 211-9 (HIV-1)
[31] = target: HIV-1 Env of pseudovirus BJOX015000.11.5 (HIV-1)
[32] = target: HIV-1 Env of pseudovirus CNE8 (HIV-1)
[33] = target: HIV-1 Env of pseudovirus 6540.v4.c1 (HIV-1)
[34] = target: HIV-1 Env of pseudovirus HIV-0013095-2.11 (HIV-1)
[35] = target: HIV-1 Env of pseudovirus 3301.v1.c24 (HIV-1)
[36] = target: HIV-1 Env of pseudovirus SC05_8C11_2344 (HIV-1)
[37] = target: HIV-1 Env of pseudovirus T250-4 (HIV-1)
[38] = target: HIV-1 Env of pseudovirus 246F C1G (HIV-1)
[39] = target: HIV-1 Env of pseudovirus 3415.v1.c1 (HIV-1)
[40] = target: HIV-1 Env of pseudovirus ZM109F.PB4 (HIV-1)

In the case of 354BG8 (antibody), the IC50 in TZM-bl assay [1] is reported as 1.18 µg/mL, the IC80 in TZM-bl assay [1] is reported as 4.85 µg/mL and the IC50 in TZM-bl assay [2] is reported as 1.99 µg/mL. The IC80 in TZM-bl assay [2] was 9.76 µg/mL, the IC50 in TZM-bl assay [3] was 0.049 µg/mL and the IC80 in TZM-bl assay [3] was 0.194 µg/mL. For the same substance, the IC50 in TZM-bl assay [4] was 0.038 µg/mL, the IC80 in TZM-bl assay [4] was 0.168 µg/mL and the IC50 in TZM-bl assay [5] was 0.008 µg/mL. The IC80 in TZM-bl assay [5] was 0.024 µg/mL, the IC50 in TZM-bl assay [6] was 0.023 µg/mL and the IC80 in TZM-bl assay [6] was 0.086 µg/mL. It also gave an IC50 in TZM-bl assay [7] of over 10 µg/mL, an IC80 in TZM-bl assay [7] of over 10 µg/mL and an IC50 in TZM-bl assay [8] of 0.026 µg/mL. The IC80 in TZM-bl assay [8] was 0.108 µg/mL, the IC50 in TZM-bl assay [9] was over 10 µg/mL and the IC80 in TZM-bl assay [9] was over 10 µg/mL. It also gave an IC50 in TZM-bl assay [10] of 0.072 µg/mL, an IC80 in TZM-bl assay [10] of 0.252 µg/mL and an IC50 in TZM-bl assay [11] of 0.727 µg/mL. It also gave an IC80 in TZM-bl assay [11] of 3.93 µg/mL, an IC50 in TZM-bl assay [12] of over 10 µg/mL and an IC80 in TZM-bl assay [12] of over 10 µg/mL. It also gave an IC50 in TZM-bl assay [13] of 0.075 µg/mL, an IC80 in TZM-bl assay [13] of over 10 µg/mL and an IC50 in TZM-bl assay [14] of 0.043 µg/mL. For the same substance, the IC80 in TZM-bl assay [14] was 0.197 µg/mL, the IC50 in TZM-bl assay [15] was over 10 µg/mL and the IC80 in TZM-bl assay [15] was over 10 µg/mL. It also gave an IC50 in TZM-bl assay [16] of over 10 µg/mL, an IC80 in TZM-bl assay [16] of over 10 µg/mL and an IC50 in TZM-bl assay [17] of 0.057 µg/mL. For the same substance, the IC80 in TZM-bl assay [17] was 0.2 µg/mL, the IC50 in TZM-bl assay [18] was 0.415 µg/mL and the IC80 in TZM-bl assay [18] was 2.97 µg/mL. The IC50 in TZM-bl assay [19] was over 10 µg/mL, the IC80 in TZM-bl assay [19] was over 10 µg/mL and the IC50 in TZM-bl assay [20] was 0.038 µg/mL. For the same substance, the IC80 in TZM-bl assay [20] was 0.131 µg/mL, the IC50 in TZM-bl assay [21] was over 10 µg/mL and the IC80 in TZM-bl assay [21] was over 10 µg/mL. The IC50 in TZM-bl assay [22] was 0.047 µg/mL, the IC80 in TZM-bl assay [22] was 0.113 µg/mL and the IC50 in TZM-bl assay [23] was over 10 µg/mL. It also gave an IC80 in TZM-bl assay [23] of over 10 µg/mL, an IC50 in TZM-bl assay [24] of 0.012 µg/mL and an IC80 in TZM-bl assay [24] of 0.032 µg/mL. It also gave an IC50 in TZM-bl assay [25] of over 10 µg/mL, an IC80 in TZM-bl assay [25] of over 10 µg/mL and an IC50 in TZM-bl assay [26] of over 10 µg/mL. For the same substance, the IC80 in TZM-bl assay [26] was over 10 µg/mL, the IC50 in TZM-bl assay [27] was 0.035 µg/mL and the IC80 in TZM-bl assay [27] was 0.126 µg/mL. It also gave an IC50 in TZM-bl assay [28] of 0.047 µg/mL, an IC80 in TZM-bl assay [28] of 0.124 µg/mL and an IC50 in TZM-bl assay [29] of 0.416 µg/mL. For the same substance, the IC80 in TZM-bl assay [29] was 5.71 µg/mL, the IC50 in TZM-bl assay [30] was 0.065 µg/mL and the IC80 in TZM-bl assay [30] was 0.403 µg/mL. It also gave an IC50 in TZM-bl assay [31] of over 10 µg/mL, an IC80 in TZM-bl assay [31] of over 10 µg/mL and an IC50 in TZM-bl assay [32] of over 10 µg/mL. For the same substance, the IC80 in TZM-bl assay [32] was over 10 µg/mL, the IC50 in TZM-bl assay [33] was over 10 µg/mL and the IC80 in TZM-bl assay [33] was over 10 µg/mL. It also gave an IC50 in TZM-bl assay [34] of over 10 µg/mL, an IC80 in TZM-bl assay [34] of over 10 µg/mL and an IC50 in TZM-bl assay [35] of 0.018 µg/mL. For the same substance, the IC80 in TZM-bl assay [35] was 0.049 µg/mL, the IC50 in TZM-bl assay [36] was 0.017 µg/mL and the IC80 in TZM-bl assay [36] was 0.048 µg/mL. The IC50 in TZM-bl assay [37] was 0.002 µg/mL, the IC80 in TZM-bl assay [37] was 0.005 µg/mL and the IC50 in TZM-bl assay [38] was 0.035 µg/mL. For the same substance, the IC80 in TZM-bl assay [38] was 0.119 µg/mL, the IC50 in TZM-bl assay [39] was over 10 µg/mL and the IC80 in TZM-bl assay [39] was over 10 µg/mL. For the same substance, the IC50 in TZM-bl assay [40] was over 10 µg/mL and the IC80 in TZM-bl assay [40] was over 10 µg/mL.
